assay: label from the status in PepcDB records

Row | Sequence | protein production
1 | MVPPRVSLLLRAETVVRPSVSAFPRKLPLVDMTAADALVGTTLAHRYRVESKIANGGMATVFLAHDLRLDRRVALKVMHANLARDPQFVQRFINEALAVAKLSHPNVVQVYDQGSDQGHVYLAMEYVAGQTLRAALKARTRFSPAEALRIMVPILAGLGAAHQAGMVHRDMKPENVLITHDGQIKVADFGLARAAEASQQGLTKTGTLMGTAAYLSPEQITHSTADARSDVYACGIMLYELLTGRQPHTGDSPIAVAYQHVNEDVPRPSRVVPGIPPEVDSLVVRATERDPAYRLANAGQFLAAVFAAQKALDEQPSAAVTSVMEMAPAPAGDTAEDSDNATRTLQGVELPPVEYDDYEDDRPPRPSLRTPLLVATVLLLVVAVGFGWWMVDGRYETVPDLVGVESDEARRDLRMLGFRVQTAEEPAYSDEAPPGTVAATDPEAGSRLLPDTLVTLILSAGPQYVEMPDVEGASVAEARDALKEVGLTDIVEDEITSFDNPPGTVITTKPAPGEKANREESVTLTISAGFPMPNVVGQKVDDARRLLESSDLEVTVVEEHHDEVPEGHVISQEPEAETTVGAGQSVTLTVSSGPELVEVPDIRGWKVDKARKELEERGFEVTVHQVIGNRVGDYNPKGEAPKGSTIEIWTSPFGRERDRDRGREDRLWIGLD | failed
2 | MVPQTGRAARATRESGRQTRDALFTAATELFLEHGEGVPITQICAAAGAHPNQVTYYYGSKERLFVEVACAAVLRAGKRAEDDAATAETVGDYTEKLVGSLLGPGAPSVELFTSAMLMTGRRSELRDLITDTLRTLHSSGEVALIRTLMRTGWQLRAGIDVESKAFWSAIFGLVIQKTATGESFGYSLEEAVAVIFANLQIPETVRNTSID | not failed
3 | MVPVVSPGPLVPVADFGPLDRLRGWIVTGLITLLATVTRFLNLGSLTDAGTPIFDEKHYAPQAWQVLNNHGVEDNPGYGLVVHPPVGKQLIAIGEAIFGYNGFGWRFTGALLGVVLVALVVRIVRRISRSTLVGAIAGVLLICDGVSFVTARTALLDGFLTFFVVAAFGALIVDRDQVRERMHIALLAGRSAATVWGPRVGVRWWRFGAGVLLGLACATKWSGVYFVLFFGAMALAFDVAARRQYQVQRPWLGTVRRDVLPSGYALGLIPFAVYLATYAPWFASETAIDRHAVGQAVGRNSVVPLPDAVRSLWHYTAKAFHFHAGLTNSAGNYHPWESKPWTWPMSLRPVLYAIDQQDVAGCGAQSCVKAEMLVGTPAMWWLAVPVLAYAGWRMFVRRDWRYAVVLVGYCAGWLPWFADIDRQMYFFYAATMAPFLVMGISLVLGDILYHPGQGSERRTLGLIVVCCYVALVVTNFAWLYPVLTGLPISQQTWNLEIWLPSWR | failed
4 | MVPYLDGEDVAGVQSRVRMYNADENLLTKMQDIEFALFGNLIMRSRMKMGVPAFLGGNGQLVKRRAVEEIGGWDGYAVTEDLNLSVKLMLRGYDVKFSSEAEVFQEAVGDWPAFFRQRTRWLIGNLETLFVYLAPLIDAPITLHRKLDSLFYLFSMLFIGFVMLGYVVFILNLAGFTLRMNAPFIIGIISTIAFFPLVITGIRRDGYSLPRTLILSIEYWAYCLYLLPLFIVAAVHMIRRRERRWAKTFHTG | failed
5 | MVQIQGCVVAAALCAVITLIAMQWLMAFDAANLVMLYLLGVVVVALFYGRWPSVVATVINVVSFDLFFIAPRGTLAVSDVQYLLTFAVMLTVGLVIGNLTAGVRYQA | not failed
6 | MVQMNNFLFDAQNIATPLMLVDLDDTLFQTHRRIVPQTDFKMVTTDKQGQALAYMNPIQQHFVQWLLHSTHLIPVTARSAEALSRVHLPFQYGAVCSHGGTVLNPDFSVNVDWHVQMQQALTSYQERQQILIDALQQQAINFGSIRTWVVEEQGLGLYIVAKQNTENDNPYAPNFLPELLNSLSSEVLEGFYFHLNGNNLALIPQPVSKANAARFVLQQFASQQRPILGFGDSLSDVEFLNLCHWWGMPNHSQLNRWVKHNLTQQYKQEGFYGDYQ | failed
7 | MVQSQSLSTLTICGSVKVSSLLRNRLNSVKASSLIGDRCVSCQFLRKSPSFRSHWKSLKQRNLLRVEARWPFQGGGEQGLDPSSERSESANEDILIFFFQLDLATRVQVKTKCRVFISFKMVANGFDVLQY | failed
8 | MVRCVRLVEAGSVVRYLSTSICRPVVDAGSRALCLQEWADSQQVKEKQYSRDVQRAAALNIYRIPPSSRKPALCPTPRDRLEYDEDRLEHIAYVRARELHTLEVTGLETVAQSKAHVASLEGLIPEDKVVLLAGSPLQNEATLGQCGVEALTTLEVVGRRLGGNNCLSLQVNPVQPARYLWTTLHSSKQGEPNSSANHRCS | failed
9 | MVRDIEDEIRDEKNPRPLDEDDIALLKTYGLGPYSAPIKKVEKEIKDLAKKINDLCGIKESDTGLAPPSQWDLVSDKQMMQEEQPLQVARCTKIISPNTEDAKYVINVKQIAKFVVGLGDKVSPTDIEEGMRVGVDRNKYQIQIPLPPKIDPSVTMMTVEEKPDVTYNDVGGCKEQIEKMREVVELPMLHPEKFVKLGIDPPKGVLCYGPPGTGKTLLARAVANRTDACFIRVIGSELVQKYVGEGARMVRELFQMARSKKACIVFFDEVDAIGGARFDDGVGGDNEVQRTMLEIVNQLDGFDARGNIKVLMATNRPDTLDPALLRPGRLDRKVEFGLPDLESRTQIFKIHTRTMNCERDIRFELLARLCPNSTGADIRSVCTEAGMYAIRARRKTVTEKDFLDAVNKVIKGYQKFSATPKYMVYN | failed
10 | MVRETYALLTGLFVVILGSALIGIALVLGDYGTERDVYVVSTQGAVSGLNPESLVIFRGVRAGKVASISFAPHDPRTILVRIEVDKGLPITRGTYATLRVQPLTGLAQIDLSDEGNDPEPLRTDPRNPANIPLRPSLLDKLTGSGSDILTQIAQLTSRLNALLDDGNRQRIAHTLESLDTAADELVRLERYIEEGLERIPILDGRLRQALADHSAMARDVRETSRQVRALSESAQKVVDIGAAASDTLIRSRLPELDALIDDAAHTAASLRRLSKTLERDPQTLLLGPAPGLPGPGEPGFQEPK | failed
11 | MVRLLHVSFVSHGAAWLPIHSCTGSHGQCERRAAGGPEAWATTPSLAAMPIDTRARQPSCDNRVMNDAALAPDVSAALERGLQAQSLDTAFAAPLLRYLALLVRWNKTYNLTAVRDPRAMVTRHLLDSLAMQPYIASGMLADLGTGPGLPGIPLAITRPQLQVTLVESNGKKARFMREALRHLELRNARVAESRAEALDEPTAYDHLTARALDTLAGIIAVGGHLLRPGGSLLAMKGIYPHEEIAALPEGWTMSEVHQLQVPGLDGERHLVVVRKA | failed
12 | MVRRLTNGRWGLTLLILALMYIIALGLMARPAAADPGITLVLNGSRVNPSVPAYTDSNGRTMVPVRFVMEHMGGRVEWLDAEQGIVVSRGATTLKMWIGKRQAQVNGQAIDLDTVPVLQDGTSMVPVRFVAQAFGGKVEWDDASRTVSIWLGTASPAGQVRITGSYVNVRTGPGTSYGVIDVLPRDTLVQLLATGDGWYQVQLPDGRQGWVSASYSEVLQGNNQPQDTNPPGNNQPGNGQSPGNNPSPGNNQPGNEEPPSGQPLGTAIIGNKPVAILAGPNPVEKQVGMAPAGSRLPIWQQQGDWWLVELDNGLRGWLASSLATFSPEKPGQDNGGSETGNGGTAPGEGNQGVGNSDSNSLKITGVTVNPGPDWIEVTVQGTRPFTFKSSRWADHLIFDIPGATLAVAPGQDKVEVNRQPLARVRLGQYDANTVRVVCDLNGAANFTTTTAGSTITIRLQKPSVRGAKIVIDPGHGTDPQGSDPGAIGPSGVQEKDVNLAISRKLAELLRAAGATVYMTRDGETTPYTLSGRAYYANEVGADLFICIHSNASLSPSASGTSTYFYAPPGTALGEQRDARQRLATLIQRDLVAAIGRRDLGVKEANFAVLRNTKMPSVLVETAFISNPTEEQLLASPDFQALVAQGIFNGISDYLSGQ | failed
13 | MVSCSNQQTQTKAITVSDTTLLSAEEFSQKIKKEPNALILDVRTPEEFSEAHIANATNVNWKDNFASGITEVNKNQPVLVYCLSGGRSASASDYLRKNGYTQVYELQGGLLKWQASNFEVVADTVTAAQDSGMTLQQFEALLVTDKYVLIDFYATWCGPCKMMEPALEDIAATMSDKVIVVRIDVDKNEELSKHFEVESLPTVQIYKNKKLVWEDIGYKTKKQLVSQLK | failed
14 | MVSDWLLLAPPAAFITAALALFVVDAISSDETSGWLLSGVTTAGGLAAAAIAGVLLLSETAAGGVELFGGQLVVDGMSLLFTFIFGSVTALVAVASLDYIRDLPHKAEYYLLISLAATGMSLMASANSLVVVFISLELASLPSYALVAYLKNNRGSVEAGLKYFLIGALSSGIMLYGISLIYATTGSFLLGDIAASVGEAASTHPGVFGVGLLMVIGGFAFKTASVPFHFWAPDAYEGAPAPVAAFLSSASKAAGFVIAFRVLLVGFPIQEVAATVDWVLLFQILAVVTMTVGNFAAATQSNVKRMLAYSSIGHAGYVLIGLAALTNVGGPTAEATVLGASMLHLLVYGFMNTGAFLFVAMVEHWDVGRTFEDYNGLAREAPLACVAMTIFLFSLAGLPVGGGFLSKYYLVVGAVGTGVWWLAVVLAINSALSLYYYSRVVKAMWIESPAESLTIERYPTALYAAVMAAAAVTVLLLPGLFVFDGAAFDAAAALL | failed
15 | MVSFVFNGGALWSVLLLALRKRRFNVDPAMMAMTIAIYAYCAANLVASIVNSAIARDALHLIPLVTFLFFPISYSTWSITQKTTLVRIIVLSSMAACFVALLLAVFQQHWLGMRAEGGAGNAIVFAEVLCLAVLVCVAGALSDIERHRIALLCAALGGTIAIIYSGTRIVWLALLIAGIAVLLINQHRLKGRNAIRLLVLLLAAGAVIAAVGFQTISGRVDFLRSDLDALAVNGDHTTAIGLRLAVWDIGLKAFREMPLFGHGVGATQALIKQGFHDQFGMDAGFNHFHNGFLTALVQAGLLGAVTLAAMFVVAARNAAVVLRNSTDPIERFGATMIVIMVITYLTSGMTGILIGHDILDSVLMVFLVSGTYLASGRQAPLPQDQALPPETEERAPAPVAEDALLPGMENRALRLTQ | failed
16 | MVSIDTLIFQALNSSKFHPLYSPSINSINLQDDWAEKEGKEELSSILLLHRKASPPPPISALPNRNHKLQPLNLLFIDFPGQSFQQRERFRQFTASVRVYYVNDRKLNVQEGALIFFVRGVRYSLPLRELCDIYGFDNDLIGVALPGQFKDAQIFWSRFSNGIYDSKDAVHSEIRHLVLRYLVRLISSTLFCKMEPGKMRLSELLVLYHVVHDFFPDSLRFEEVDRDVNVGAVFAHHLVSLKTKPFTGRGKKLERVGSLLTPIFEHFRISFEGEELPCTALTKITSEHEELSFCPDPSLMHAAPRTRRHRGLASRSAPTQTEDEFIDPAEGLRVGSSSSALPYQLPSPPPIPMEPHVFQQYVVDSFKSVWNAIATLSR | failed
17 | MVSIIIPIYNVQDYINDCLYSVYTQTYSEIEVILVNDCTPDNSMLIAHSNIEKLKKRFNVKIIDHKSNKGLSAARNSGVKEATGEWVYFLDSDDEITPDCIECFVRLAERYLSVDFIVGGIRVIGRNISYRLTTSEYVIGNDNILKCYISGMWYEMAWNKLIRKEYFVSNNLWFKEGLLHEDQLFSYQLATTALTMATVNKPTYIYKMRMSGAITSSNGRKNFDSFICILEYMVYSVMQKYSTSSVTLEYAQIIRFSYSILLSLYGKHNLTEMEVVNYELKVDRICRIVTFYKCKLPVPIQIKLTIIKLPQTMRKVLLKWHNKKIQKKLEHHHHHH | not failed

Source: a protein production outcome set (Wang et al. 2014)
